According to paper PMC8892353 (Proceedings of the National Academy of Sciences of the …, 2022):
Changes are numbered by the printed parent chain. Numbers in names are those of the source.

B1: Recombinant human COA7 (natural protein)
chain: MAGMVDFQDEEQVKSFLENMEVECNYHCYHEKDPDGCYRLVDYLEGIRKNFDEAAKVLKFNCEENQHSDSCYKLGAYYVTGKGGLTQDLKAAARCFLMACEKPGKKSIAACHNVGLLAHDGQVNEDGQPDLGKARDYYTRACDGGYTSSCFNLSAMFLQGAPGFPKDMDLACKYSMKACDLGHIWACANASRMYKLGDGVDKDEAKAEVLKNRAQQLHKEQQKGVQPLTFG
B2: Recombinant Y137C COA7 (^Y137CCOA7) (natural protein, human)
chain: B1 chain with Y137C

Experiments:
COA7 = COA7 (Homo sapiens, UniProt Q96BR5); assay: biochemical
AUC = biological target: the molecule itself; assay: AUC

Row | Molecule | Kd (COA7) | stoichiometry N (AUC)
1 | C=CC1=C(C)C2=Cc3c(C=C)c(C)c4[n]3[Fe]([Cl])[n]3c(c(C)c(CCC(=O)O)c3=CC3=NC(=C4)C(C)=C3CCC(=O)O)=CC1=N2 [hemin] | 1.4 ± 0.28 µM | 
2 | B1 |  | 2
3 | B2 |  | 2
